How the values were obtained:
gRAMP;TPR-CHAT = gRAMP;TPR-CHAT (Candidatus Scalindua brodae;Candidatus …, UniProt A0A0B0EGF3;A0A0B0EKL4 1-1717;1-716, |); assay: cryo-EM (2.6 A); Complex assembly at 1:1.2 (complex:target RNA), 5 mM EDTA, on ice 30 min; SEC in 20 mM Tris-HCl pH 8.0, 150 mM NaCl, 1 mM DTT; details: protein: recombinant;recombinant; tags: N-terminal His6;C-terminal Strep II; copies: 1;1; single strand; 35 nt modelled in 7Y80 and 7Y84
gRAMP = gRAMP (Candidatus Scalindua brodae, UniProt A0A0B0EGF3 1-1717); assay: cryo-EM; Complex assembly at 1:1.2 (complex:target RNA), 5 mM EDTA, on ice 30 min; SEC in 20 mM Tris-HCl pH 8.0, 150 mM NaCl, 1 mM DTT; details: protein: recombinant; tags: N-terminal His6; single strand; 35 nt modelled in 7Y80 and 7Y84

B1: crRNA (ssRNA)
RNA: GACUUAAUGUCACGGUACCCAAUUUUCUGCCCCGGACUCCACGGCUGUUACUAGAG
binding result (gRAMP;TPR-CHAT): binds | binding result (gRAMP): binds

Source: paper PMC9729208, “Structural basis for the non-self RNA-activated protease activity of the type III-E CRISPR nuclease-protease Craspase”
